Data on three molecules can be found in patent publication US9931401B2, “Combination comprising anti-fibroblast growth factor receptor 2 (FGFR2) antibody and a tyrosine kinase inhibitor” (Daiichi Sankyo Company, Limited, priority 2013, dated 2018).

The target in one test is T1, human FGFR2 IIIb (Homo sapiens, UniProt P21802).
T1 construct: expressed in transfected cells; host or cells: 293α cells (HEK293 stably transfected with integrin αv and β3)
The test can be described thus: Elk1 luciferase reporter gene assay, FGFR2 IIIb-expressing 293α cells, ligand FGF7. The format is cell-based. Particulars: FGF7 10 ng/ml; for ligand FGF7 dependent reporter activation in the FGFR2 IIIb-expressing cells: antibody preincubated 1 hour, 6 hours; for ligand FGF7 dependent reporter activation in FGFR2-expressing HEK293 reporter cells (screening): hybridoma culture supernatant diluted 5-fold. As for the experimental part: In order to evaluate the signal-neutralizing effect of the anti-FGFR2 antibody produced by each obtained hybridoma, an Elk1 luciferase reporter gene assay system for detecting ERK (extracellular signal-regulated kinase) activation induced by FGFR2 activation via ligand FGF7 stimulation was constructed by a method shown below and used in the evaluation of the obtained antibody for its effect.
The Elk1 luciferase reporter gene assay was carried out using each hybridoma culture supernatant selected in Example 1)-5. A cell line 293α, which was HEK293 cells stably transfected with integrin αv and integrin β3 expression vectors, was transiently cotransfected with pcDNA-DEST40-FGFR2 IIIb or pcDNA-DEST40, pFA2-Elk1 (manufactured by Stratagene Corp.), pFR-Luc2CP, and pGL4.74[hRluc/TK] (manufactured by Promega Corp.) according to transfection procedures using Lipofectamine 2000 (manufactured by Invitrogen Corp.), inoculated to a white 96-well cell culture plate (manufactured by Corning Inc.), and cultured overnight at 37° C. under 5% CO2 conditions. On the next day, the culture supernatant was removed, and the hybridoma culture supernatant diluted 5-fold with DMEM containing 5% FBS was added at a concentration of 50 μl/well to the plate. After culture at 37° C. for 1 hour under 5% CO2 conditions, a ligand human FGF7 (manufactured by R&D systems, Inc.) was added at a final concentration of 10 ng/ml to each well. After incubation for 6 hours, cell lysates were prepared and assayed for firefly luciferase activity (specific signal) and Renilla luciferase activity (signal for normalization) using Dual-luciferase reporter assay system (manufactured by Promega Corp.). The firefly/Renilla ratio was calculated to normalize data on each well.
In order to evaluate the signal-neutralizing effects of the obtained antibodies by the Elk1 luciferase reporter gene assay, 293α cells were cotransfected with pcDNA-DEST40-FGFR2 IIIb or pcDNA-DEST40-FGFR2 IIIc constructed in Example 1)-3-1, pFA2-Elk1 (manufactured by Stratagene Corp.), pFR-Luc2CP, and pGL4.74[hRluc/TK] (manufactured by Promega Corp.) by the method shown in Example 1)-6-2, and cultured overnight at 37° C. under 5% CO2 conditions. On the next day, the culture supernatant was removed, and the cells were then preincubated for 1 hour with the rat FR2-10, FR2-13, or FR2-14 antibody diluted with DMEM containing 2% FBS. Subsequently, a ligand human FGF7 (manufactured by R&D systems, Inc.) or human FGF9 (manufactured by PeproTech Inc.) was added at a final concentration of 10 ng/ml to each well. After incubation for 6 hours, firefly luciferase activity (specific signal) and Renilla luciferase activity (signal for normalization) were assayed using Dual-Glo Luciferase Assay System (manufactured by Promega Corp.). The firefly/Renilla ratio was calculated to normalize data on each well.
In order to evaluate the signal-neutralizing effects of the obtained antibodies by the Elk1 luciferase reporter gene assay, 293α cells were transfected with pcDNA-DEST40-FGFR2 IIIb or pcDNA-DEST40-FGFR2 IIIc constructed in Example 1)-3-1 by the method shown in Example 1)-6-2, and cultured overnight at 37° C. under 5% CO2 conditions. On the next day, the culture supernatant was removed, and the cells were then preincubated for 1 hour with the cFR2-10, cFR2-13, or cFR2-14 antibody (final concentration: 0.05 to 5 μg/ml) diluted with DMEM containing 2% FBS. Subsequently, a ligand human FGF7 (manufactured by R&D systems, Inc.) or human FGF9 (manufactured by PeproTech Inc.) was added at a final concentration of 10 ng/ml to each well. After incubation for 6 hours, cell lysates were prepared and assayed for firefly luciferase activity (specific signal) and Renilla luciferase activity (signal for normalization) using Dual-luciferase reporter assay system (manufactured by Promega Corp.). The firefly/Renilla ratio was calculated to normalize data on each well. […]
In general terms: A reporter such as luciferase makes a cellular process visible.

For the next test, the target named is T2, human FGFR2 (Homo sapiens, UniProt P21802).
T2 construct: expressed in transfected cells; host or cells: HEK293T cells
The test can be described thus: Flow cytometry, selective binding to human FGFR expression vector-transfected HEK293T cells. Particulars: hybridoma culture supernatant, FGFR1 IIIc, FGFR2 IIIb, FGFR3 IIIb, FGFR4 transfectants. The method, then: HEK293T cells were inoculated at a density of 5×10^4 cells/cm^2 to a 225-cm^2 flask (manufactured by Sumitomo Bakelite Co., Ltd.) and cultured overnight at 37° C. under 5% CO2 conditions in a DMEM medium containing 10% FBS. On the next day, the pcDNA-DEST40-FGFR2 IIIb IgD1-deletion mutant deficient in the N-terminal IgD1 domain or a control pcDNA-DEST40 was transfected to the HEK293T cells using Lipofectamine 2000, and the cells were further cultured overnight at 37° C. under 5% CO2 conditions. On the next day, the expression vector-transfected HEK293T cells were treated with TrypLE Express (manufactured by Life Technologies Corp.), washed with DMEM containing 10% FBS, and then suspended in PBS containing 5% FBS. The obtained cell suspension was used in flow cytometry analysis.
cDNAs encoding a human FGFR1 IIIc variant protein (isoform 1: NP_075598), a human FGFR3 IIIb variant protein (isoform 3: NP_001156685), a human FGFR3 IIIc variant protein (isoform 1: NP_000133), and a human FGFR4 protein (isoform 1: NP_002002) were cloned into pcDNA-DEST40 vectors to construct vectors pcDNA-DEST40-FGFR1 IIIc, pcDNA-DEST40-FGFR3 IIIb, pcDNA-DEST40-FGFR3 IIIc, and pcDNA-DEST40-FGFR4 for expression of each variant protein, respectively.
Each human FGFR expression vector constructed in Examples 1)-3-1 and 2)-1-1 was transfected to HEK293T cells by the method shown in Example 1)-5-1. The cell suspension was centrifuged to remove the supernatant. Then, these various human FGFR expression vector-transfected HEK293T cells and the pcDNA-DEST40-transfected HEK293T cells were separately suspended by the addition of the hybridoma culture supernatant containing the FR2-10, FR2-13, or FR2-14 antibody and left standing at 4° C. for 1 hour. […] The data was analyzed using Flowjo (manufactured by Tree Star Inc.). After removal of 7-aminoactinomycin D-positive dead cells by gating, the FITC fluorescence intensity of live cells was plotted to a histogram to calculate average fluorescence intensity (MFI).

T2 sequence (P21802 22-822 isoform P21802-3): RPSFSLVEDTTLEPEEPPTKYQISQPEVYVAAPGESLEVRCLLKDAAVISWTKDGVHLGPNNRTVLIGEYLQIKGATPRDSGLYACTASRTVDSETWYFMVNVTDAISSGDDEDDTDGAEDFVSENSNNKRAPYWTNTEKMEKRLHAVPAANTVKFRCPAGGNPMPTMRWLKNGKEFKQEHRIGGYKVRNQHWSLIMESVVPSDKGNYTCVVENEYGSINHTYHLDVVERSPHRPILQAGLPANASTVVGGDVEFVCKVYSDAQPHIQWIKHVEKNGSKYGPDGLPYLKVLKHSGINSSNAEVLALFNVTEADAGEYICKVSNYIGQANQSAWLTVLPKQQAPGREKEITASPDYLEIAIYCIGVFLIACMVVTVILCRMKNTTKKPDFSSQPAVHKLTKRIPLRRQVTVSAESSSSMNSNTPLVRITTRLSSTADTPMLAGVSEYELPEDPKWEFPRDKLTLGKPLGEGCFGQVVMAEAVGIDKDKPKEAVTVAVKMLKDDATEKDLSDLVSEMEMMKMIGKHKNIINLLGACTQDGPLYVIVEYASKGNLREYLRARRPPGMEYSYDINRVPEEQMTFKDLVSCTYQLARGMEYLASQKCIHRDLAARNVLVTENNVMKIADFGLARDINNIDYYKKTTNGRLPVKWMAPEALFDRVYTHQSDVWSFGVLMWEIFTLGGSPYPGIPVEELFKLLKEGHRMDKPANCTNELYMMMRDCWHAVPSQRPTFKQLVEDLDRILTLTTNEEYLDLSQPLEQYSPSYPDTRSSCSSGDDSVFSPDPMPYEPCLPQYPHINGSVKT
T1 sequence (P21802 22-822 isoform P21802-3 limits assumed): as the sequence (P21802 22-822 isoform P21802-3) above

B1: FR2-13: anti-human FGFR2 rat monoclonal antibody obtained by the method described in Example 1; VH SEQ ID NO: 14, VL SEQ ID NO: 24 (antibody, listed as Rattus norvegicus, V domains shown)
VH: QVKLLQSGAELVKPGASVKLSCKTSGFTFSTSYMSWLKQVPGPSIEWIGWIYAGDGGTKYNQKFKGKATLTVDKSSSTAYMDLSSLTSEDAAVYFCATDGYGDWFAYWGQGTLVTVSS
VL: DIQMTQSPASLSASLGETVTIECRASEDIYSNLAWYQQKPGNSPQLLIYDANILADGVPSRFSGSGSGTQYSLKINSLQSEDVASYFCQQYNNYPPFTFGVGTKLELKRA
Consider B1, for which, in the test with human FGFR2 IIIb, the “ligand FGF7 dependent reporter activation in the FGFR2 IIIb-expressing cells” value is recorded as “inhibited” and the “ligand FGF7 dependent reporter activation in FGFR2-expressing HEK293 reporter cells (screening)” value was “reduced ligand FGF7 dependent reporter activation to a ligand-free level”. Further, the “selective binding activity against human FGFR2” value (shortened to “selective binding activity”) with human FGFR2 is “selectively bind to both human FGFR2 IIIb and FGFR2 IIIc”.

B2: FR2-14: anti-human FGFR2 rat monoclonal antibody obtained by the method described in Example 1; VH SEQ ID NO: 16, VL SEQ ID NO: 26 (antibody, listed as Rattus norvegicus, V domains shown)
VH: QVKLLQSGAELVKPGASVKLSCKTSGFTFSTSYMSWLKQVPGPSTEWIGWIYAGDGGTKYNQKFKGKATLTVDKFSSTAYMDLSSLTSEDAAVYFCATDGYGDWFTYWGQGTLVTVSS
VL: DIQMTQSPASLSASLGETVTIECRASEDIYSNLAWYQQKPGNSPQLLIYDANILADGVPSRFSGSGSGTQYSLKINSLQSEDVASYFCQQYNNYPPFTFGAGTKLELKRA
Regarding B2, in the test with human FGFR2 IIIb, the “ligand FGF7 dependent reporter activation in the FGFR2 IIIb-expressing cells” value is “inhibited” and the “ligand FGF7 dependent reporter activation in FGFR2-expressing HEK293 reporter cells (screening)” value is “reduced ligand FGF7 dependent reporter activation to a ligand-free level”. Further, the “selective binding activity” value in the test with human FGFR2 is “selectively bind to both human FGFR2 IIIb and FGFR2 IIIc”.

B3: FR2-10: anti-human FGFR2 rat monoclonal antibody obtained by the method described in Example 1; VH SEQ ID NO: 12, VL SEQ ID NO: 21 (antibody, listed as Rattus norvegicus, V domains shown)
VH: EVQLVESGGGLVQPGRSLKLSCVASGFRFNDFWMTWIRQAPGKGLEWVASITYTGDNTYYAGSVKGRITISRDNAKSTLYLQMNSLRSEDTATYYCTRDDYGGYSPYYMDAWGQGTSVTVSS
VL: DIQMTQSPSSLSAFLGDRVTITCRASQDIGNYLRWFQQKPGKSPRLMIYGATNLANGVPSRFSGSRSGSDYSLTINNLESEDMAIYYCLKHNEYPFTFGSGTKLEIKRA
Turning to B3, in the test with human FGFR2 IIIb, the “ligand FGF7 dependent reporter activation in the FGFR2 IIIb-expressing cells” value is reported as “inhibited” and the “ligand FGF7 dependent reporter activation in FGFR2-expressing HEK293 reporter cells (screening)” value is on record as “reduced ligand FGF7 dependent reporter activation to a ligand-free level”. The “selective binding activity” value with human FGFR2 was “selectively bind to human FGFR2 IIIb”.
